Reference: US20250355001A1, “METHOD FOR DETECTING A TAU PROTEIN FRAGMENT IN A SAMPLE” (GTINVENT LIMITED, priority 2022, published 2025)

Assays:
aggregated dGAE = aggregated dGAE (Homo sapiens, UniProt P10636); experiment: Capture ELISA ranking mAbs for capture of dGAE aggregates; format: binding; details: capture mAb 1 μg/ml; 800 nM aggregated dGAE
Protocol: The aggregation cascade of natively unfolded tau into insoluble filaments is a defining pathological feature of AD. Therefore, it is logical to target aggregated tau filaments for both therapeutic and diagnostic purposes. The following experiment was performed to assess the ability of our dGA mAb panel to bind aggregated dGAE using a capture ELISA method. Aggregates were prepared by incubating 100 μM dGAE and 10 mM dTT for 24 h at 37° C. with shaking at 700 RPM. The following day, dGAE aggregates were centrifuged at 17,000×g for 20 min and the supernatant was removed. The remaining pellet was washed with 10 mM phosphate buffer and centrifuged as above. Washing was repeated a further two times to remove any remaining dGAE monomer. The dGAE pellet was resuspended in 100 μl of 10 mM phosphate buffer. (Using a separate capture ELISA based quantification, we have worked out the efficiency of our dGAE aggregation as 80%)
Following washing, 800 nM aggregated dGAE was added to the designated wells, double diluted across the plate and incubated for 1 h at RT. The plate was washed again and 1 μg/ml S1G2 scAb was added as detection antibody and incubated for 1 h at RT. To the row where S1G2 mAb was used for capture, […] s1D12 scAb was added as […] instead of S1G2. The assay was developed using HRP labelled HuCK as described previously.

[1] = test system: 13 aa tau peptides of hT40; experiment: Alanine scanning mutagenesis (ASM) peptide ELISA; format: binding, human; details: alanine substituted peptides; numbering SEQ ID NO: 1
Protocol: Briefly, 5 μg/ml streptavidin (Thermo Fisher) was adsorbed to Nunc 96-well MaxiSorp plates and following incubation at 37° C. for 1 h, the plates were washed as normal and blocked with 2% MPBS. N-terminally biotinylated peptides (Prolmmune Ltd) were added to the plates and incubated for 1 h at 37° C. Subsequently, test scAbs at starting concentrations of 100-500 nM was added and double diluted across the plate for each peptide and incubated for 1 h at 37° C. Rest of the ELISA was conducted as described above and the plates were read at absorbance 450 nm. Immunoreactivity of the scAb of interest was quantified as the % of scAb was bound for each peptide at a chosen concentration (FIG. 15-20).

dGAE aggregates = dGAE aggregates (Homo sapiens, UniProt P10636); experiment: Epitope occlusion assay: dGAE aggregation with/without LMTM, 423 mAb capture ELISA; format: biochemical; details: total and supernatant samples; 423 mAb capture
Protocol: During dGAE aggregation in vitro, scAb binding regions on dGA/dGAE are ‘hidden’ or ‘occluded’ which leads to a loss of immunoreactivity in aggregation samples. Here we have shown the occlusion of binding regions in aggregated dGAE samples and the recovery of immunoreactivity in the presence of LMTM, a tau-aggregation inhibitor. For preparing the aggregates, 10 μl 10 mM DTT was added to 1000 μl 100 μM dGAE and agitated with/without LMTM (1:5 ratio) at 700 rpm for 24 h at 37° C. Following overnight agitation, one third of each sample was kept aside as ‘total’ and the rest was spun down at 16000×g for 30 min and separated into ‘supernatant’ and ‘pellet’. The pellet was then resuspended in half the original volume for further experiments. […] Doubling dilutions of dGAE aggregate ‘total’, ‘supernatant’ and ‘pellet’ samples at 10 μg/ml starting concentration were added to designated wells in doubling dilutions in 1×PBS. dGAE monomer (non-aggregated) was included as assay control. All double dilutions were done in final volumes of 100 μl. This was left to incubate on lab bench for 1 h followed by the addition of test scAbs at 10 μg/ml. Anti-HuCk HRP labelled secondary antibody was added as described previously and ELISA data generated is represented using the graph below.

dGA (SEQ ID NO: 5) = dGA (SEQ ID NO: 5) (Homo sapiens, UniProt P10636); experiment: Biacore X100 SPR kinetics of scAbs for dGA; format: binding; details: Table 24, scAb, dGA analyte; for Kd: dissociation rate
Protocol: Surface plasmon resonance (SPR) is widely regarded as the gold standard for real time measurement of protein-protein interactions such as antibody binding. All SPR experiments were carried out using a Biacore X100 machine and HBS EP+ running buffer (GE Healthcare). A ‘capture’ method was followed for affinity measurements, where an anti-human constant kappa chain (HuCk) antibody was conjugated to the surface of a CM5 sensor chip using an amine coupling kit and scAb molecules were immobilised via their HuCk domain. Amine coupling is a very common approach for immobilising the ligand to the chip surface. The chip surface has a dextran matrix derivatised with carboxyl groups, which after activation with N-hydroxysuccinimide (NHS) and 1-ethyl-3-(3-dimethylaminopropyl) carbodiimide (EDC), form reactive succinimide esters which allows the covalent capturing of the ligand via any available primary amine groups (e.g. Lysine) on the ligand (in this case anti-HuCk antibody). The capture antibody was diluted 1/100 in 10 mM Sodium acetate buffer pH 5.0 and passed over the activated chip surface for a period of at least 420 s. Final ligand immobilisation levels over 12,000 RU were deemed to be satisfactory.
Following immobilisation, the level of each scAb to be captured was identified using the standard SPR equation with a theoretical RMax of 100 RU. Analyte MW refers to the molecular weight of hT40 or dGA/dGAE molecules, while ligand MW refers to the molecular weight of the scAbs tested. RL is the desired capture level and S refers to the stoichiometric ratio:
The scAb to be tested was added only to flow cell 2 so that flow cell 1 could act as a control to subtract any interaction with the analyte and the chip surface. Both single and multi-cycle runs were utilised using wizards developed in the Biacore X100 control software which are both accepted methods of kinetic analysis (Karlsson, R., et al. Analyzing a kinetic titration series using affinity biosensors (2006) Analytical Biochemistry 349:136-47). The multi-cycle protocol was as follows-Three start-up cycles composed of an initial capture, to the desired level, of the scAb to be tested was performed followed by a 30 s injection of glycine buffer pH 2.0 after each cycle to regenerate the chip surface. The regeneration step removed any captured scAb whilst leaving the capture antibody intact and able to repeat the capture for the next cycle. Following three start-up cycles increasing concentrations (0.15625 nM-100 nM) of the target to be tested were added to the chip surface after the desired scAb capture. The target was added for a 120 s association period and 420 s dissociation period followed by another regeneration, 30 s injection of glycine buffer pH 2.0 in between each cycle.
The single cycle kinetics protocol was similar and utilised the same level of scAb capture. Three start-up cycles were used followed by 5 increasing concentrations of the analyte (6.25 nM-100 nM) for an association period of 120 s followed by a dissociation period of 420 s for each concentration. In single cycle kinetics the regeneration step was performed only after the final analyte concentration was added. Binding responses were analysed in Biacore X100 evaluation software and data fitted to a 1:1 binding model to obtain kinetic and affinity characterisation.

Sequence of dGA (SEQ ID NO: 5) (P10636 614-707): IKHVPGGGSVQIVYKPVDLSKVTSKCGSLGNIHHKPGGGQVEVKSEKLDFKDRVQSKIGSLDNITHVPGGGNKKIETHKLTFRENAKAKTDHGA
Sequence of dGAE aggregates (P10636 614-708): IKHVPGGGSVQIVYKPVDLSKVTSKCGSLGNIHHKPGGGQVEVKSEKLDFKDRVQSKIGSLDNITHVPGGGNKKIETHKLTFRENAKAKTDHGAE
Sequence of aggregated dGAE (P10636 614-708): as above

B1: S1D12: sheep-derived anti-tau core clone; scFv SEQ ID NO: 32, VH 443, VL 444 (protein)
scFv: QVQLQESGPSLVKPSQTLSLTCTVSGFSLNNNAVGWVRQAPGKVPESLVGCSSDGTCYYNSALKSRLDITRDTSKNQISLSLSSVTTDDAAVYYCTRGHYSIYGYDYLGTIDYWGPGLLVTVSSEGKSSGASGESKVDDQAVLTQPSSVSGSLGQRVSITCSGSSSNVGGGNSVGWYQHLPGSGLKTIIYDTNSRPSGVPDRFSGSRSGNTATLTINSLQAEDEGDYYCVTGDSTTHDDLVGSGTRLTVLG
modifications: S1D12 amino acid sequence
In the case of B1, the “ability to capture dGAE aggregates” value (aggregated dGAE) is reported as “most efficient at capturing aggregated dGAE”, the critical binding residues [1] is reported as 343 (K), 346 (F) and/or 349 (R) and the “immunoreactivity to dGAE aggregation samples prepared in the presence of LMTM” value (dGAE aggregates) is reported as “increase in immunoreactivity”. For the same molecule, the “ka” value (dGA (SEQ ID NO: 5)) was 1.21e+06 M⁻¹ s⁻¹ and the “Kd” value (dGA (SEQ ID NO: 5)) was 0.000418 s⁻¹.

B2: CE2: anti-tau core clone, Table 10; SEQ ID NO: 366 (protein)
scFv: QVQLQESGPSLVKPSQTLSLTCTVSGFSLTNYPVGWVRQAPGKALEWIGNIENDGSANYASALKSRLSITRDTSKNQVSLSLSSATTEDTAVYYCGREFGGSDGYTYFVDIDYWGPGLLVTVSSEGKSSGASGESKVDDQAVLTQPSSVSKSLGQSVSITCSGSSSNVGYGNYVSWFQQVPGSAPKILIYGATSRASGVPDRFSGSRSGNTATLTITSLQAEDEADYYCASYDGSSSGVFGSGTRLTVLG
modifications: CE2/E1B8 amino acid sequence
B2 was tested, and the critical binding residues [1] was 323 (G), 324 (S), 325 (L), 326 (G), 327 (N) and/or 328 (I), the “immunoreactivity to dGAE aggregation samples prepared in the presence of LMTM” value (dGAE aggregates) was “increase in immunoreactivity” and the “ka” value (dGA (SEQ ID NO: 5)) was 137000 M⁻¹ s⁻¹. The “Kd” value (dGA (SEQ ID NO: 5)) was 0.00242 s⁻¹.

B3: S1G2: sheep-derived anti-tau core clone; scFv SEQ ID NO: 81, VH 455, VL 456 (protein)
scFv: QVQLQESGPSLVKPSQTLSLTCTVSGFSLTSNSVGWVRQAPGKAPEWVAGIDTDGEEGYNPALNSRLSITRDTSKSQVSLSLSSVTSEDTAVYYCGRSYRADGLAYGYVQAIDYWGPGLLVTVSSEGKSSGASGESKVDDQAVVTQPSSVSGSLGQRVSITCSGSFIGISSVGWFQQLPGSGLRTIIVASDGRPSGVPDRFSMSKSGNTATLTISSLQAEDEADYFCGSSDRTPYTGVFGSGTRLTVLG
modifications: S1G2 amino acid sequence
For B3, the “ability to capture dGAE aggregates” value (aggregated dGAE) was “most efficient at capturing aggregated dGAE”, the “ka” value (dGA (SEQ ID NO: 5)) was 783000 M⁻¹ s⁻¹ and the “Kd” value (dGA (SEQ ID NO: 5)) was 0.0003499 s⁻¹.
